Test results taken from patent US20160272683A1 (Novo Nordisk, published 2016).
Numbered stars: 1 amine (or outer) side, 2 acyl side, 3 side chain; on linkers, the order of the positions; unused ones are H or OH. Ends that are not written are not given here. * marks the point of attachment. C20 diacid = O=C(O)CCCCCCCCCCCCCCCCCCC(=O)*; C18 diacid = O=C(O)CCCCCCCCCCCCCCCCC(=O)*; γGlu = O=C(O)[C@H](CCC(=O)[*:2])N[*:1]

T1: human amylin receptor (human calcitonin receptor + human RAMP3) (human) (UniProt P30988)
T1 sequence (looked up) 1: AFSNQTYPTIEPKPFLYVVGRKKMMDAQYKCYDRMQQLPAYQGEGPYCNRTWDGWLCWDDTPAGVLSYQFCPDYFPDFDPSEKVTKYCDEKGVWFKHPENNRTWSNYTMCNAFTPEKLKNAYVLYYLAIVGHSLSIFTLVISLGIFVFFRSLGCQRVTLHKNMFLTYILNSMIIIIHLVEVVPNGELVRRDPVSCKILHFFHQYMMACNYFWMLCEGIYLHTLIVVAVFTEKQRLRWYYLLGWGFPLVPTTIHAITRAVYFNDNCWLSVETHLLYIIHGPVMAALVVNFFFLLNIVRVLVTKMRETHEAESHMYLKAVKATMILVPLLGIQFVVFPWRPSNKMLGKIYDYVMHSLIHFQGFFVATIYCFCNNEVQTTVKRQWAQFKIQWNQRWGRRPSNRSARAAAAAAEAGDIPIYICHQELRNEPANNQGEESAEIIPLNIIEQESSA
T1 sequence (looked up) 2: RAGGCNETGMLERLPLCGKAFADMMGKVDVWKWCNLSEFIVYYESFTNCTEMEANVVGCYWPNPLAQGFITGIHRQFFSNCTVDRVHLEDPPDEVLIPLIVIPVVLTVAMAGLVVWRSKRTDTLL

B1: [N-terminal(C20 diacid-gGlu), des1, 2L, 4G, 9V, 21S, 23Y, 30S, 31G, 32T, 33Y]mimylin (peptide)
peptide: {C20 diacid-γGlu}-LSGLSTAVLGRLSAELHELSTYPRTETGSGTY-NH2
SMILES: CC(C)C[C@H](NC(=O)CC[C@H](NC(=O)CCCCCCCCCCCCCCCCCCC(=O)O)C(=O)O)C(=O)N[C@@H](CO)C(=O)NCC(=O)N[C@@H](CC(C)C)C(=O)N[C@@H](CO)C(=O)N[C@H](C(=O)N[C@@H](C)C(=O)N[C@H](C(=O)N[C@@H](CC(C)C)C(=O)NCC(=O)N[C@@H](CCCNC(=N)N)C(=O)N[C@@H](CC(C)C)C(=O)N[C@@H](CO)C(=O)N[C@@H](C)C(=O)N[C@@H](CCC(=O)O)C(=O)N[C@@H](CC(C)C)C(=O)N[C@@H](Cc1c[nH]cn1)C(=O)N[C@@H](CCC(=O)O)C(=O)N[C@@H](CC(C)C)C(=O)N[C@@H](CO)C(=O)N[C@H](C(=O)N[C@@H](Cc1ccc(O)cc1)C(=O)N1CCC[C@H]1C(=O)N[C@@H](CCCNC(=N)N)C(=O)N[C@H](C(=O)N[C@@H](CCC(=O)O)C(=O)N[C@H](C(=O)NCC(=O)N[C@@H](CO)C(=O)NCC(=O)N[C@H](C(=O)N[C@@H](Cc1ccc(O)cc1)C(N)=O)[C@@H](C)O)[C@@H](C)O)[C@@H](C)O)[C@@H](C)O)C(C)C)[C@@H](C)O
B2: [N-terminal(C20 diacid-gGlu), des1, 2L, 4Q, 8L, 9V, 15Q, 16R, 19R, 21Q, 23Y, 27Q, 30S, 31Q, 32T, 33Y]mimylin (peptide)
peptide: {C20 diacid-γGlu}-LSQLSTLVLGRLSQRLHRLQTYPRTQTGSQTY-NH2
SMILES: CC(C)C[C@H](NC(=O)CC[C@H](NC(=O)CCCCCCCCCCCCCCCCCCC(=O)O)C(=O)O)C(=O)N[C@@H](CO)C(=O)N[C@@H](CCC(N)=O)C(=O)N[C@@H](CC(C)C)C(=O)N[C@@H](CO)C(=O)N[C@H](C(=O)N[C@@H](CC(C)C)C(=O)N[C@H](C(=O)N[C@@H](CC(C)C)C(=O)NCC(=O)N[C@@H](CCCNC(=N)N)C(=O)N[C@@H](CC(C)C)C(=O)N[C@@H](CO)C(=O)N[C@@H](CCC(N)=O)C(=O)N[C@@H](CCCNC(=N)N)C(=O)N[C@@H](CC(C)C)C(=O)N[C@@H](Cc1c[nH]cn1)C(=O)N[C@@H](CCCNC(=N)N)C(=O)N[C@@H](CC(C)C)C(=O)N[C@@H](CCC(N)=O)C(=O)N[C@H](C(=O)N[C@@H](Cc1ccc(O)cc1)C(=O)N1CCC[C@H]1C(=O)N[C@@H](CCCNC(=N)N)C(=O)N[C@H](C(=O)N[C@@H](CCC(N)=O)C(=O)N[C@H](C(=O)NCC(=O)N[C@@H](CO)C(=O)N[C@@H](CCC(N)=O)C(=O)N[C@H](C(=O)N[C@@H](Cc1ccc(O)cc1)C(N)=O)[C@@H](C)O)[C@@H](C)O)[C@@H](C)O)[C@@H](C)O)C(C)C)[C@@H](C)O
B3: [N-terminal(C20 diacid-gGlu), 4Q, 9V, 15Q, 21Q, 23Y, 27G, 30S, 31G, 32T, 33Y]mimylin (peptide)
peptide: {C20 diacid-γGlu}-EASQLSTAVLGRLSQELHELQTYPRTGTGSGTY-NH2
SMILES: CC(C)C[C@H](NC(=O)[C@H](CCCNC(=N)N)NC(=O)CNC(=O)[C@H](CC(C)C)NC(=O)[C@@H](NC(=O)[C@H](C)NC(=O)[C@@H](NC(=O)[C@H](CO)NC(=O)[C@H](CC(C)C)NC(=O)[C@H](CCC(N)=O)NC(=O)[C@H](CO)NC(=O)[C@H](C)NC(=O)[C@H](CCC(=O)O)NC(=O)CC[C@H](NC(=O)CCCCCCCCCCCCCCCCCCC(=O)O)C(=O)O)[C@@H](C)O)C(C)C)C(=O)N[C@@H](CO)C(=O)N[C@@H](CCC(N)=O)C(=O)N[C@@H](CCC(=O)O)C(=O)N[C@@H](CC(C)C)C(=O)N[C@@H](Cc1c[nH]cn1)C(=O)N[C@@H](CCC(=O)O)C(=O)N[C@@H](CC(C)C)C(=O)N[C@@H](CCC(N)=O)C(=O)N[C@H](C(=O)N[C@@H](Cc1ccc(O)cc1)C(=O)N1CCC[C@H]1C(=O)N[C@@H](CCCNC(=N)N)C(=O)N[C@H](C(=O)NCC(=O)N[C@H](C(=O)NCC(=O)N[C@@H](CO)C(=O)NCC(=O)N[C@H](C(=O)N[C@@H](Cc1ccc(O)cc1)C(N)=O)[C@@H](C)O)[C@@H](C)O)[C@@H](C)O)[C@@H](C)O
B4: [N-terminal(C20 diacid-gGlu), 2L, 4G, 8L, 9V, 15Q, 21Q, 23Y, 27G, 30S, 31G, 32T, 33Y]mimylin (peptide)
peptide: {C20 diacid-γGlu}-ELSGLSTLVLGRLSQELHELQTYPRTGTGSGTY-NH2
SMILES: CC(C)C[C@H](NC(=O)CNC(=O)[C@H](CO)NC(=O)[C@H](CC(C)C)NC(=O)[C@H](CCC(=O)O)NC(=O)CC[C@H](NC(=O)CCCCCCCCCCCCCCCCCCC(=O)O)C(=O)O)C(=O)N[C@@H](CO)C(=O)N[C@H](C(=O)N[C@@H](CC(C)C)C(=O)N[C@H](C(=O)N[C@@H](CC(C)C)C(=O)NCC(=O)N[C@@H](CCCNC(=N)N)C(=O)N[C@@H](CC(C)C)C(=O)N[C@@H](CO)C(=O)N[C@@H](CCC(N)=O)C(=O)N[C@@H](CCC(=O)O)C(=O)N[C@@H](CC(C)C)C(=O)N[C@@H](Cc1c[nH]cn1)C(=O)N[C@@H](CCC(=O)O)C(=O)N[C@@H](CC(C)C)C(=O)N[C@@H](CCC(N)=O)C(=O)N[C@H](C(=O)N[C@@H](Cc1ccc(O)cc1)C(=O)N1CCC[C@H]1C(=O)N[C@@H](CCCNC(=N)N)C(=O)N[C@H](C(=O)NCC(=O)N[C@H](C(=O)NCC(=O)N[C@@H](CO)C(=O)NCC(=O)N[C@H](C(=O)N[C@@H](Cc1ccc(O)cc1)C(N)=O)[C@@H](C)O)[C@@H](C)O)[C@@H](C)O)[C@@H](C)O)C(C)C)[C@@H](C)O
B5: [N-terminal(C20 diacid-gGlu), des1, 4G, 9V, 15Q, 21Q, 23Y, 30S, 31A, 32T, 33Y]mimylin (peptide)
peptide: {C20 diacid-γGlu}-ASGLSTAVLGRLSQELHELQTYPRTETGSATY-NH2
SMILES: CC(C)C[C@H](NC(=O)CNC(=O)[C@H](CO)NC(=O)[C@H](C)NC(=O)CC[C@H](NC(=O)CCCCCCCCCCCCCCCCCCC(=O)O)C(=O)O)C(=O)N[C@@H](CO)C(=O)N[C@H](C(=O)N[C@@H](C)C(=O)N[C@H](C(=O)N[C@@H](CC(C)C)C(=O)NCC(=O)N[C@@H](CCCNC(=N)N)C(=O)N[C@@H](CC(C)C)C(=O)N[C@@H](CO)C(=O)N[C@@H](CCC(N)=O)C(=O)N[C@@H](CCC(=O)O)C(=O)N[C@@H](CC(C)C)C(=O)N[C@@H](Cc1c[nH]cn1)C(=O)N[C@@H](CCC(=O)O)C(=O)N[C@@H](CC(C)C)C(=O)N[C@@H](CCC(N)=O)C(=O)N[C@H](C(=O)N[C@@H](Cc1ccc(O)cc1)C(=O)N1CCC[C@H]1C(=O)N[C@@H](CCCNC(=N)N)C(=O)N[C@H](C(=O)N[C@@H](CCC(=O)O)C(=O)N[C@H](C(=O)NCC(=O)N[C@@H](CO)C(=O)N[C@@H](C)C(=O)N[C@H](C(=O)N[C@@H](Cc1ccc(O)cc1)C(N)=O)[C@@H](C)O)[C@@H](C)O)[C@@H](C)O)[C@@H](C)O)C(C)C)[C@@H](C)O
B6: [N-terminal(C20 diacid-gGlu), des1, 4G, 15T, 21E, 23Y, 30S, 31G, 32T, 33Y]mimylin (peptide)
peptide: {C20 diacid-γGlu}-ASGLSTAALGRLSTELHELETYPRTETGSGTY-NH2
SMILES: CC(C)C[C@H](NC(=O)CNC(=O)[C@H](CO)NC(=O)[C@H](C)NC(=O)CC[C@H](NC(=O)CCCCCCCCCCCCCCCCCCC(=O)O)C(=O)O)C(=O)N[C@@H](CO)C(=O)N[C@H](C(=O)N[C@@H](C)C(=O)N[C@@H](C)C(=O)N[C@@H](CC(C)C)C(=O)NCC(=O)N[C@@H](CCCNC(=N)N)C(=O)N[C@@H](CC(C)C)C(=O)N[C@@H](CO)C(=O)N[C@H](C(=O)N[C@@H](CCC(=O)O)C(=O)N[C@@H](CC(C)C)C(=O)N[C@@H](Cc1c[nH]cn1)C(=O)N[C@@H](CCC(=O)O)C(=O)N[C@@H](CC(C)C)C(=O)N[C@@H](CCC(=O)O)C(=O)N[C@H](C(=O)N[C@@H](Cc1ccc(O)cc1)C(=O)N1CCC[C@H]1C(=O)N[C@@H](CCCNC(=N)N)C(=O)N[C@H](C(=O)N[C@@H](CCC(=O)O)C(=O)N[C@H](C(=O)NCC(=O)N[C@@H](CO)C(=O)NCC(=O)N[C@H](C(=O)N[C@@H](Cc1ccc(O)cc1)C(N)=O)[C@@H](C)O)[C@@H](C)O)[C@@H](C)O)[C@@H](C)O)[C@@H](C)O)[C@@H](C)O

Each binder was assayed against T1, human amylin receptor (human calcitonin receptor + human RAMP3) (human) (assay: whole-cell competition vs 125I-rat amylin (Assay Va)).

**Q.** B1 was tested. Which IC50 did it give?
**A.** 11.8 nM

**Q.** Which IC50 does the source give for ASELTTAVLGRLSAELHELATLPRTETGTGTP-NH2 [[des1, 6T, 9V, 30T, 31G, 32T]mimylin] here?
**A.** 20.2 nM

**Q.** How did the IC50 turn out when ASEVSTAVLGRLSAELHELATLPRTETGSGSP-NH2 [[des1, 5V, 9V, 30S, 31G]mimylin] was run?
**A.** 0.982 nM

**Q.** For ASELSTAALGHLSAELHELATLPRTETGSGSP-NH2 [[des1, 12H, 30S, 31G]mimylin], which IC50 is on record?
**A.** 5.1 nM

**Q.** For B2, which IC50 is on record?
**A.** 10.7 nM

**Q.** B3 was tested. Which IC50 did it give?
**A.** 0.338 nM

**Q.** With B4 as the binder, how does the IC50 read?
**A.** 2.56 nM

**Q.** EASELSTAALGRLSAELHELATLPRTETGSGSP-NH2 [[30S, 31G]mimylin] was tested. Which IC50 did it give?
**A.** 0.469 nM

**Q.** How did the IC50 turn out when {C20 diacid-γGlu}-ASGLSTATLGRLSQELHELQTYPRTETGSGTY-NH2 [[N-terminal(C20 diacid-gGlu), des1, 4G, 9T, 15Q, 21Q, 23Y, 30S, 31G, 32T, 33Y]mimylin] was run?
**A.** 0.079 nM

**Q.** How did the IC50 turn out when LSGLSTAVLGRLSQELHELQTYPRTETGSQTY-NH2 [[des1, 2L, 4G, 9V, 15Q, 21Q, 23Y, 30S, 31Q, 32T, 33Y]mimylin] was run?
**A.** 1.18 nM

**Q.** Which IC50 does the source give for B5 here?
**A.** 0.244 nM

**Q.** Which IC50 does the source give for EASELSTAALGRLSAELHELATLPRTETGPESP-OH [[C-terminal(-)]mimylin] here?
**A.** 294 nM

**Q.** {C18 diacid}-EASELSTAALGRLSAELHELATLPRTETGPESP-OH [[N-terminal(C18 diacid), C-terminal(-)]mimylin] was tested. Which IC50 did it give?
**A.** 298 nM

**Q.** Which IC50 does the source give for ASELTTAVLGRLEAELHELTTLPRTETGTGTP-NH2 [[des1, 6T, 9V, 14E, 21T, 30T, 31G, 32T]mimylin] here?
**A.** 71.4 nM

**Q.** With B6 as the binder, how does the IC50 read?
**A.** 0.431 nM
